Measured values reported in patent US20090004211A1, “METHOD FOR EFFECTING LOCALIZED, NON-SYSTEMIC AND SYSTEMIC, IMMUNOGENIC TREATMENT OF CANCER USING ERP57 TRANSLOCATION” (priority 2006, published 2009).
“Also recorded” adds a separate entry of the source.

Legend:
CT26 tumor cells [1] = experiment: Anti-tumor vaccination: treated dying CT26 cells injected s.c., challenge with live tumor cells in opposite flank; type: in vivo, BALB/c mice; details: for restoration of immunogenicity defect by recombinant protein, anti-tumor vaccination: siRNA-transfected, mitoxantrone-treated CT26 cells
CT26 cells [2] = experiment: Phagocytosis assay: uptake of treated tumor cells by dendritic cells; type: cell-based, mouse; details: for reversal of siRNA-induced defect at the level of phagocytosis by DC: CRT-specific or ERP57 specific siRNA, recombinant protein added
Protocol: BM cells were flushed from the tibias and femurs of BALB/c mice with culture medium composed of RPMA 1640 medium supplemented with 10% heat-inactivated FBS, sodium pyruvate, […] 2-ME. 10 mM HEPES (pH 7.4), and penicillin/streptomycin. After one centrifugation, BM cells were resuspended in Tris-ammonium chloride for 2 min to lyse RBC. After one more centrifugation, BM cells (1×10^6 cells/ml) were cultured in medium supplemented with 100 ng/ml recombinant mouse FLT3 ligand in 6-well plates. […] In 12-well plates, […] adherent CT26 cells were labeled with Celltracker Orange and then incubated with drugs. […] Alternatively CT26 cells were coated with 3 μg/10^6 cells of rCRT on ice for 30 minutes and washed twice prior to addition to dendritic cells. Cells were then harvested, washed three times with medium supplemented with FBS and cocultured with immature DC for 2 hours at a ratio of 1:1 and 1:5. At the end of the incubation, cells were harvested with Versene, pooled with non-adherent cells present in the supernatant, washed and stained with CD11c-FITC antibody. Phagocytosis was assessed by FACS analysis of double positive cells. Phagocytic indexes refer to the ratio between values obtained at […] of co-incubation between DC and tumor cells. Trypsinized CT26 cells were enucleated as described. Briefly, cells were treated in 2 ml of complete RPMI medium containing cytochalasin B (10 μg/ml; Sigma) and DNase I (80 U/ml; Sigma). Cell suspension was adjusted to a final concentration of 5×10^6/ml and incubated at 37° C. for 45 minutes before being layered onto a previously prepared discontinuous Ficoll density gradient (3 ml of 100%, in 1 ml of 90% and 3 ml of 55% Ficoll Paque layer containing 5 μg/ml cytochalasin B and 40 U/ml DNase I; gradients were prepared in ultracentrifuge tubes and pre-equilibrated at 37° C. in a CO2 incubator overnight). Gradients containing cell suspensions were centrifugated in a prewarmed SW41 Beckman rotor at 25 000 rpm for 20 minutes at 30° C. The cytoplasts-enriched fraction was collected from the interface between 90 and 100% Ficoll layers, washed in complete RPMI 1640 medium, and incubated at 37° C. The cells were incubated with mitoxantrone (MTX), calyculin (CA), salubrinal (Sal) and toutomycin (TA) for the period of time indicated in the experiment. […] Alternatively cythoplasts were cocultured with immature DC for 2 hours at a ratio of 1:1 and 1:5. At the end of the incubation, cells were harvested with versene, pooled with non-adherent cells present in the supernatant, washed and stained with CD11c-FITC antibody. Phagocytosis was assessed by FACS analysis of double positive cells.

ERP57 [3] = experiment: Fluorescence detection of cell surface ERP57 (cytofluorometry); type: cell-based, mouse; details: murine MCA205, B16F10, J558; human HeLa, A549, HCT116
CT26 tumors = experiment: Treatment of established CT26 tumors by single intratumoral injection; type: in vivo, BALB/c mice; details: for therapeutic effect of single intratumoral injection: agent alone
Protocol: (§1) All animals were maintained in specific pathogen-free conditions and all experiments followed the FELASA guidelines. 3×10^6 treated CT26 cells were inoculated s.c. in […] of PBS into BALB/c six-week-old female mice, into the lower flank, while 5×10^5 untreated control cells were inoculated into the contralateral flank. For the tumorigenicity assay, 3×10^6 treated or untreated CT26 cells were injected s.c. into nu/nu mice. To assess the specificity of the immune response against CT26, injections of either 5×10^5 or 5×10^6 of CT26 were made (for the mice immunized in a standard protocol or vaccination protocol, respectively). Tumors were evaluated weekly, using a caliper. In a series of experiments, BALB/c (wild type or nu/nu) carrying palpable CT26 tumors (implanted 14 days before for wild type or 7 days before for nu/nu mice by injection of […] tumor cells) received a single intratumoral injection of […] PBS containing the same concentration of anti-cancer agents and PP1/GADD34 inhibitors as those used in vitro, as well as rCRT ([…]). For the assessment of local immune response, 3×10^5 cells were injected in 50 μl into the footpad of mice. Five days later, mice were sacrificed and the draining lymph nodes were harvested. 1×10^5 lymph node cells were cultured for 4 days alone or with 1×10^4 CT26 cells killed by a freeze-thaw cycle in 200 μl in round-bottom 96-well plates. IFN-γ was determined by ELISA.

CRT = experiment: Fluorescence detection of cell surface CRT (cytofluorometry); details: for time after treatment at which CRT exposure is detectable: intact cells; for reversal of siRNA-induced defect at the level of CRT expression: CRT-specific or ERP57 specific siRNA, recombinant protein added
Protocol: CT26 cells (on a glass slide or in 12-well plates) were first washed with FACS buffer (1×PBS, 5% fetus bovine serum, and 0.1% sodium azide) and then incubated with rabbit anti-mouse CRT antibody (1:100, Stressgen), or rabbit anti-mouse ERP57 antibody (abcam) in FACS buffer at 4° C. for 30 min. […] After washing three times with FACS buffer, surface CRT and ERP57 was detected by cytofluorometric analysis on a FACS Vantage. In some experiments, cells were fixed with 4% paraformaldehyde, counterstained with Hoechst (2 μM; Sigma), followed by fluorescence microscopic assessment.
Trypsinized CT26 cells were enucleated as described. Briefly, cells were treated in 2 ml of complete RPMI medium containing cytochalasin B (10 μg/ml; Sigma) and DNase I (80 U/ml; Sigma). […] Gradients containing cell suspensions were centrifugated in a prewarmed SW41 Beckman rotor at 25 000 rpm for 20 minutes at 30° C. […] Then the cell surface CRT was detected (see materials and methods) and the viability was determined by with propidium iodine staining (2 μg/ml, Sigma) for 5 min followed by cytofluorometric analysis.

ERP57 [4] = experiment: Fluorescence detection of cell surface ERP57 (cytofluorometry); type: cell-based, mouse
Protocol: CT26 cells (on a glass slide or in 12-well plates) were first washed with FACS buffer (1×PBS, 5% fetus bovine serum, and 0.1% sodium azide) and then incubated with rabbit anti-mouse CRT antibody (1:100, Stressgen), or rabbit anti-mouse ERP57 antibody (abcam) in FACS buffer at 4° C. for 30 min. Cells reacted with anti-rabbit IgG (H+L) Alexa fluor 488-conjugates (1:500) in FACS buffer at 4° C. for 30 min. After washing three times with FACS buffer, surface CRT and ERP57 was detected by cytofluorometric analysis on a FACS Vantage. In some experiments, cells were fixed with 4% paraformaldehyde, counterstained with Hoechst (2 μM; Sigma), followed by fluorescence microscopic assessment.

CT26 cells [5] = system: CT26 cells
sperm-egg fusion = experiment: Sperm-egg fusion assay; type: cell-based, ICR mice
Protocol: Gamete Isolation. Using mature, cumulus-free oocytes from superovulated 6-week-old to 8-week-old ICR female mice, eggs were denuded from the zona pellucida and loaded with DAPI. Sperms were collected from each cauda epididymis and vas deferens of 10- to 12-week-old ICR males. […] […] All the experiments were performed according to the animal care and use protocols approved by French and European Union Ethical Committee.
Sperm-Egg Fusion Assay. […] After the incubation, the sperms or eggs were washed. Sperms were added at a final concentration of 1-3×10^5 sperm/ml and coincubated with gamete for 40 min at 37° C. and 5% CO2. The oocytes were then washed to release loosely bound sperms and mounted onto microscope slides. Alternatively, non-capacitated sperms were incubated with recombinant CRT or ERP57, 3 μg/10^5 sperm, for 30 min 37° C. and 5% CO2, followed by three washes with PBS. Sperm-egg fusion scored by the fluorescent labeling of sperm nuclei by DAPI transferred from preloaded eggs. Fertilization rote (FR) is the percentage of oocytes with at least one fused sperm, and Fertilization index (FI) is the mean number of fused sperm per egg. Both the FR and FI are expressed of the control treatment.

DC = DC maturation ex vivo; type: cell-based; details: protein alone, large range of concentrations
CT26 tumor cells [6] = experiment: Local immune response: tumor cells injected into footpad, IFN-γ secretion by draining lymph node cells (ELISA); type: in vivo, Balb/c mice; details: for restoration of immunogenicity defect by recombinant protein, interferon-γ production: siRNA-transfected, mitoxantrone-treated CT26 cells
Protocol: as §1

[7] = immunocompetent BALB/c mice, 14-day-old CT26 tumors

O=C1c2c(O)ccc(O)c2C(=O)c2c(NCCNCCO)ccc(NCCNCCO)c21 [mitoxantrone]
immunogenicity of cell death (protection against tumor growth on rechallenge) (CT26 tumor cells [1]; CT26 cells treated in vitro with agent alone, immunocompetent BALB/c mice): elicited immunogenic cell death
time after treatment at which tumor cells are phagocytosed by DC (CT26 cells [2]; before apoptotic changes): within a few hours after treatment
uptake of treated cytoplasts by DC (CT26 cells [2]; enucleated cells (cytoplasts)): as efficiently as intact cells
ERP57 exposure on panel of tumor cell lines (ERP57 [3]): induced
therapeutic effect of single intratumoral injection (CT26 tumors; [7]): permanent regression in some but not all cases
therapeutic effect of single intratumoral injection (CT26 tumors; immunodeficient nu/nu mice): no cure
time to CRT exposure in enucleated cells (CRT; cytoplasts): ≤ 1 h
time after treatment at which CRT exposure is detectable (CRT): 1 h
CRT exposure on panel of tumor cell lines (CRT; murine MCA205, B16F10, J558, human HeLa, A549, HCT116): induced
time to ERP57 exposure in enucleated cells (ERP57 [4]; cytoplasts): ≤ 1 h

peptide inhibitor: protein transduction domain-5 (RRQRRTSKLMKR) fused to the inhibitory sequence of the complex PP1/GADD34 (LKARKVRFSEKV) (RRQRRTSKLMKRLKARKVRFSEKV)
toxic effect (CT26 cells [5]; 24 h of treatment): no toxic effect
percentage of dead cells positive for DAPI and Annexin V (CT26 cells [5]; after 24 h of treatment): did not increase the percentage of dead cells
CRT exposure at cell surface (CRT; CT26 cells, agent alone): increase greatly and quickly
time after treatment at which CRT exposure is detectable (CRT): 1 h
ERP57 exposure at cell surface (ERP57 [4]; CT26 cells, agent alone): increase greatly and quickly
time after treatment at which ERP57 exposure is detectable (ERP57 [4]; intact cells): 1 h

B1: rCRT: recombinant CRT (calreticulin) protein, which binds to the surface of the cells (protein)
chain: DPAIYFKEQFLDGDAWTNRWVESKHKSDFGKFVLSSGKFYGDLEKDKGLQTSQDARFYALSAKFEPFSNKGQTLVVQFTVKHEQNIDCGGGYVKLFPSGLDQKDMHGDSEYNIMFGPDICGPGTKKVHVIFNYKGKNVLINKDIRCKDDEFTHLYTLIVRPDNTYEVKIDNSQVESGSLEDDWDFLPPKKIKDPDAAKPEDWDERAKIDDPTDSKPEDWDKPEHIPDPDAKKPEDWDEEMDGEWEPPVIQNPEYKGEWKPRQIDNPDYKGTWIHPEIDNPEYSPDANIYAYDSFAVLGLDLWQVKSGTIFDNFLITNDEAYAEEFGNETWGVTKAAEKQMKDKQDEEQRLKEEEEDKKRKEEEEAEDKEDDDDRDEDEDEEDEKEEDEEESPGQAKDEL
anti-tumor immune response to etoposide-treated cells coated with protein (CT26 tumor cells [1]; etoposide-treated cells): elicited a vigorous anti-tumor immune response
anti-cancer immune response, protein absorbed to cells without prior cell death inducer (CT26 tumor cells [1]; live cells, no cell death inducer): failed to elicit an anti-cancer immune response
restoration of immunogenicity defect by recombinant protein, anti-tumor vaccination (CT26 tumor cells [1]): this defect was restored; also recorded: restores the protection against tumors
reversal of siRNA-induced defect at the level of phagocytosis by DC (CT26 cells [2]): could reverse the defect; also recorded: restores phagocytosis
therapeutic effect of single intratumoral injection (CT26 tumors; [7]): no major therapeutic effect
therapeutic effect of single intratumoral injection (CT26 tumors; immunodeficient nu/nu mice): no major therapeutic effect
effect of injection into a distant site on antitumoral effects of intratumorally injected etoposide (CT26 tumors; contralateral subcutaneous injection): did not ameliorate the antitumoral effects
therapeutic effect of intratumoral injection combined with etoposide or mitomycin C (CT26 tumors; immunocompetent animals): able to cause tumor regression
therapeutic effect of intratumoral injection combined with etoposide or mitomycin C (CT26 tumors; immunodeficient (athymic) animals): not in immunodeficient
sperm-egg fusion, recombinant protein absorbed to sperm without prior capacitation (sperm-egg fusion; non-capacitated sperm): restores very efficiently the fusion
DC maturation ex vivo (DC): could not promote DC maturation
reversal of siRNA-induced defect at the level of CRT expression (CRT): could reverse the defect
immunogenicity of mitomycin C-treated cells with protein absorbed to plasma membrane (CT26 tumor cells [6]; mitomycin C-treated cells): greatly enhanced the immunogenicity
restoration of immunogenicity defect by recombinant protein, interferon-γ production (CT26 tumor cells [6]): this defect was restored

B2: rERP57: recombinant ERP57 protein (protein)
chain: SDVLELTDENFESRVSDTGSAGLMLVEFFAPWCGHCKRLAPEYEAAATRLKGIVPLAKVDCTANTNTCNKYGVSGYPTLKIFRDGEEAGAYDGPRTADGIVSHLKKQAGPASVPLRTEEEFKKFISDKDASVVGFFRDLFSDGHSEFLKAASNLRDNYRFAHTNIESLVKEYDDNGEGITIFRPLHLANKFEDKTVAYTEKKMTSGKIKKFIQDSIFGLCPHMTEDNKDLIQGKDLLTAYYDVDYEKNAKGSNYWRNRVMMVAKKFLDAGHKLNFAVASRKTFSHELSDFGLESTTGEVPVVAIRTAKGEKFVMQEEFSRDGKALEQFLQEYFDGNLKRYLKSEPIPESNEGPVKVVVAENFDDIVNEEDKDVLIEFYAPWCGHCKNLEPKYKELGEKLSKDPNIVIAKMDATANDVPSPYEVKGFPTIYFSPANKKLTPKKYEGGRELNDFISYLQREATNPPIIQEEKPKKKKKAQEDL
restoration of immunogenicity defect by recombinant protein, anti-tumor vaccination (CT26 tumor cells [1]): not restored
restoration of immunogenicity defect by recombinant protein, anti-tumor vaccination (CT26 tumor cells [1]; listed as recombinant ERP57): did not restore the protection against tumors
reversal of siRNA-induced defect at the level of phagocytosis by DC (CT26 cells [2]): did not reverse the defect
fertilization rate and index (sperm-egg fusion; non-capacitated sperm with recombinant protein): no significant effect
DC maturation ex vivo (DC): could not promote DC maturation
reversal of siRNA-induced defect at the level of CRT expression (CRT): did not reverse the defect
restoration of immunogenicity defect by recombinant protein, interferon-γ production (CT26 tumor cells [6]): not restored
restoration of immunogenicity defect by recombinant protein, interferon-γ production (CT26 tumor cells [6]; listed as recombinant ERP57): did not restore
